Strand notation (5' to 3'): a small letter for the sugar, then the base; units joined by * are phosphorothioate-linked, units joined directly phosphodiester-linked; [ ] holds rarer units or linkages, { } end groups; capitals alone tell only the bases. m = 2'-O-methyl; r = 2'-OH (RNA)
B1: G000481: TTR sgRNA modified sequence, Human, SEQ ID No. 88; guide sequence of CR003345 (nucleic acid)
guide: mU*mC*mU*rArGrArArCrUrUrUrGrArCrCrArUrCrArGrGrUrUrUrUrArGrAmGmCmUmAmGmAmAmAmUmAmGmCrArArGrUrUrArArArArUrArArGrGrCrUrArGrUrCrCrGrUrUrArUrCrAmAmCmUmUmGmAmAmAmAmAmGmUmGmGmCmAmCmCmGmAmGmUmCmGmGmUmGmCmU*mU*mU*mU
B2: G000492: TTR sgRNA modified sequence, Human, SEQ ID No. 99; guide sequence of CR003342 (nucleic acid)
guide: mC*mU*mU*rCrUrCrUrArCrArCrCrCrArGrGrGrCrArCrGrUrUrUrUrArGrAmGmCmUmAmGmAmAmAmUmAmGmCrArArGrUrUrArArArArUrArArGrGrCrUrArGrUrCrCrGrUrUrArUrCrAmAmCmUmUmGmAmAmAmAmAmGmUmGmGmCmAmCmCmGmAmGmUmCmGmGmUmGmCmU*mU*mU*mU
B3: G000482: TTR sgRNA modified sequence, Human, SEQ ID No. 89; guide sequence of CR003365 (nucleic acid)
guide: mU*mG*mU*rArGrArArGrGrGrArUrArUrArCrArArArGrGrUrUrUrUrArGrAmGmCmUmAmGmAmAmAmUmAmGmCrArArGrUrUrArArArArUrArArGrGrCrUrArGrUrCrCrGrUrUrArUrCrAmAmCmUmUmGmAmAmAmAmAmGmUmGmGmCmAmCmCmGmAmGmUmCmGmGmUmGmCmU*mU*mU*mU
B4: G000485: TTR sgRNA modified sequence, Human, SEQ ID No. 92; guide sequence of CR003336 (nucleic acid)
guide: mC*mC*mU*rCrCrUrCrUrGrCrCrUrUrGrCrUrGrGrArCrGrUrUrUrUrArGrAmGmCmUmAmGmAmAmAmUmAmGmCrArArGrUrUrArArArArUrArArGrGrCrUrArGrUrCrCrGrUrUrArUrCrAmAmCmUmUmGmAmAmAmAmAmGmUmGmGmCmAmCmCmGmAmGmUmCmGmGmUmGmCmU*mU*mU*mU
B5: G000483: TTR sgRNA modified sequence, Human, SEQ ID No. 90; guide sequence of CR005298 (nucleic acid)
guide: mU*mC*mC*rArCrUrCrArUrUrCrUrUrGrGrCrArGrGrArGrUrUrUrUrArGrAmGmCmUmAmGmAmAmAmUmAmGmCrArArGrUrUrArArArArUrArArGrGrCrUrArGrUrCrCrGrUrUrArUrCrAmAmCmUmUmGmAmAmAmAmAmGmUmGmGmCmAmCmCmGmAmGmUmCmGmGmUmGmCmU*mU*mU*mU
B6: G000484: TTR sgRNA modified sequence, Human, SEQ ID No. 91; guide sequence of CR003367 (nucleic acid)
guide: mA*mG*mA*rCrArCrCrArArArUrCrUrUrArCrUrGrGrArGrUrUrUrUrArGrAmGmCmUmAmGmAmAmAmUmAmGmCrArArGrUrUrArArArArUrArArGrGrCrUrArGrUrCrCrGrUrUrArUrCrAmAmCmUmUmGmAmAmAmAmAmGmUmGmGmCmAmCmCmGmAmGmUmCmGmGmUmGmCmU*mU*mU*mU
B7: G000490: TTR sgRNA modified sequence, Human, SEQ ID No. 97; guide sequence of CR003366 (nucleic acid)
guide: mA*mA*mA*rUrArGrArCrArCrCrArArArUrCrUrUrArCrGrUrUrUrUrArGrAmGmCmUmAmGmAmAmAmUmAmGmCrArArGrUrUrArArArArUrArArGrGrCrUrArGrUrCrCrGrUrUrArUrCrAmAmCmUmUmGmAmAmAmAmAmGmUmGmGmCmAmCmCmGmAmGmUmCmGmGmUmGmCmU*mU*mU*mU
B8: G000491: TTR sgRNA modified sequence, Human, SEQ ID No. 98; guide sequence of CR003338 (nucleic acid)
guide: mA*mU*mA*rCrCrArGrUrCrCrArGrCrArArGrGrCrArGrGrUrUrUrUrArGrAmGmCmUmAmGmAmAmAmUmAmGmCrArArGrUrUrArArArArUrArArGrGrCrUrArGrUrCrCrGrUrUrArUrCrAmAmCmUmUmGmAmAmAmAmAmGmUmGmGmCmAmCmCmGmAmGmUmCmGmGmUmGmCmU*mU*mU*mU
B9: G000493: TTR sgRNA modified sequence, Human, SEQ ID No. 100; guide sequence of CR003368 (nucleic acid)
guide: mA*mA*mG*rUrGrCrCrUrUrCrCrArGrUrArArGrArUrUrGrUrUrUrUrArGrAmGmCmUmAmGmAmAmAmUmAmGmCrArArGrUrUrArArArArUrArArGrGrCrUrArGrUrCrCrGrUrUrArUrCrAmAmCmUmUmGmAmAmAmAmAmGmUmGmGmCmAmCmCmGmAmGmUmCmGmGmUmGmCmU*mU*mU*mU

Columns and labels:
[1] = system: TTR; experiment: TTR editing in primary human hepatocytes transfected with Spy Cas9 mRNA and sgRNAs (Table 13); assay type: cell-based; details: primary human hepatocytes co-transfected with Spy Cas9 mRNA (SEQ ID NO:2) and sgRNAs, 12.5 nM
Procedure: (§1) Primary liver hepatocytes. Primary human liver hepatocytes (PHH) and primary cynomolgus liver hepatocytes (PCH) (Gibco) were cultured per the manufacturer's protocol (Invitrogen, protocol 11.28.2012). In brief, the cells were thawed and resuspended in hepatocyte thawing medium with supplements (Gibco, Cat. CM7000) followed by centrifugation at 100 g for 10 minutes for human and 80 g for 4 minutes for cyno. The supernatant was discarded and the pelleted cells resuspended in hepatocyte plating medium plus supplement pack (Invitrogen, Cat. A1217601 and CM3000). Cells were counted and plated on Bio-coat collagen I coated 96-well plates (ThermoFisher, Cat. 877272) at a density of 33,000 cells/well for human or 60,000 cells/well for cyno (or 65,000 cells/well when assaying effects on TTR protein, described further below). Plated cells were allowed to settle and adhere for 6 or 24 hours in a tissue culture incubator at 37° C. and 5% CO2 atmosphere. After incubation cells were checked for monolayer formation and media was replaced with hepatocyte culture medium with serum-free supplement pack (Invitrogen, Cat. A1217601 and CM4000).
Lipofectamine RNAiMax (ThermoFisher, Cat. 13778150) based transfections were conducted as per the manufacturer's protocol. Cells were sequentially transfected with a lipoplex containing Spy Cas9 mRNA (100 ng), Lipofectamine RNAiMax (0.4 […]) and tracer RNA ([…]), Lipofectamine RNAiMax (0.4 μL/well) and OptiMem.
Transfected cells were harvested post-transfection at 24, 48, or 72 hours. The genomic DNA was extracted from each well of a 96-well plate using 50 μL/well BuccalAmp DNA Extraction solution (Epicentre, Cat. QE09050) per manufacturer's protocol. All DNA samples were subjected to PCR and subsequent NGS analyses, as described herein.
(§2) To quantitatively determine the efficiency of editing at the target location in the genome, sequencing was utilized to identify the presence of insertions and deletions introduced by gene editing.
(§3) Primers were designed around the target site within the gene of interest (e.g. TTR), and the genomic area of interest was amplified.
(§4) Additional PCR was performed per the manufacturer's protocols (Illumina) to add chemistry for sequencing. The amplicons were sequenced on an Illumina MiSeq instrument. The reads were aligned to a reference genome (e.g., the human reference genome (hg38), the cynomologus reference genome (mf5), the rat reference genome (rn6), or the mouse reference genome (mm10)) after eliminating those having low quality scores. The resulting files containing the reads were mapped to the reference genome (BAM files), where reads that overlapped the target region of interest were selected and the number of wild type reads versus the number of reads which contain an insertion, substitution, or deletion was calculated.
(§5) The editing percentage (e.g., the “editing efficiency” or “percent editing” or “indel frequency”) is defined as the total number of sequence reads with insertions/deletions (“indels”) or substitutions over the total number of sequence reads, including wild type.
Guides in modified sgRNA format targeting human and/or cyno TTR were delivered to primary human hepatocytes and primary cyno hepatocytes as described in Example 1. Percent editing was determined for crRNAs comprising each guide sequence across each cell type and the guide sequences were then rank ordered based on highest % edit. The screening data for the guide sequences in Table 2 in both cell lines are listed below (Table 12 through 15).

[2] = system: TTR; experiment: TTR editing in primary human hepatocytes treated with LNP formulated Spy Cas9 mRNA (SEQ ID NO: 2) and sgRNAs (Table 16); assay type: cell-based; details: LNP formulated Spy Cas9 mRNA (SEQ ID NO: 2) and sgRNA, 72 hours
Procedure: as §1
(§6) In general, the lipid nanoparticle components were dissolved in 100% ethanol with the lipid component of various molar ratios. The RNA cargos were dissolved in 25 mM citrate, 100 mM NaCl, pH 5.0, resulting in a concentration of RNA cargo of approximately 0.45 mg/mL. The LNPs were formulated with a lipid amine to RNA phosphate (N:P) molar ratio of about 4.5 or about 6, with the ratio of mRNA to gRNA at 1:1 by weight.
(§7) The LNPs were formed by microfluidic mixing of the lipid and RNA solutions using a Precision Nanosystems NanoAssemblr™ Benchtop Instrument, according to the manufacturer's protocol. A 2:1 ratio of aqueous to organic solvent was maintained during mixing using differential flow rates. After mixing, the LNPs were collected, diluted in water (approximately 1:1 v/v), held for 1 hour at room temperature, and further diluted with water (approximately 1:1 v/v) before final buffer exchange. The final buffer exchange into 50 mM Tris, 45 mM NaCl, 5% (w/v) sucrose, pH 7.5 (TSS) was completed with PD-10 desalting columns (GE). If required, formulations were concentrated by centrifugation with Amicon 100 kDa centrifugal filters (Millipore). The resulting mixture was then filtered using a 0.2 μm sterile filter. The final LNP was stored at −80° C. until further use.
as §2, §3, §4, §5
(§8) Lipid nanoparticle formulations of modified sgRNAs targeting human TTR and the cyno matched sgRNA sequences were tested on primary human hepatocytes and primary cyno hepatocytes in a dose response curve. Primary human and cyno hepatocytes were plated as described in Example 1. […]

[3] = system: TTR; experiment: TTR editing in primary cyno hepatocytes treated with LNP formulated Spy Cas9 mRNA (SEQ ID NO: 2) and sgRNAs (Tables 17, 18); assay type: cell-based, cynomolgus monkey; details: Table 17, LNP formulated Spy Cas9 mRNA (SEQ ID NO: 2) and sgRNA, 12.5 ng mRNA, 3.9 nM sgRNA, 72 hours
Procedure: as §1, §6, §7, §2, §3, §4, §5, §8

[4] = system: off-target integration sites; experiment: Off-target oligo insertion based assay in primary human hepatocytes (Table 30); assay type: cell-based; details: TTR sgRNAs in PHH, 100 ng Cas9 mRNA, 25 nM sgRNA, 12.5 nM donor oligo
Procedure: Off-target analysis of sgRNAs targeting TTR was performed in primary human hepatocytes (PHH) as described in Example 5, with the following modifications. PHH were plated at a density of 33,000 cells per well on collagen-coated 96-well plates as described in Example 1. Twenty-four hours post plating, cells were washed with media and transfected using Lipofectamine RNAiMAX (ThermoFisher, Cat. 13778150) as described in Example 1. Cells were transfected with a lipoplex containing 100 ng Cas9 mRNA, immediately followed by the addition of another lipoplex containing 25 nM of the sgRNA and 12.5 nM of the donor oligo (0.3 μL/well). Cells were lysed 48 hours post-transfection and gDNA was extracted and analyzed as further described in Example 5. The data is graphically represented in FIG. 20.
Fewer sites were detected in PHH for every guide tested as compared to the HekCas9 cell line, with no unique sites detected in PHH alone.

Molecule	Avg % Deletion [1]	Avg % Edit [1]	Avg % Insert [1]	12.5 ng mRNA, 3.9 nM sgRNA Avg % Edit [2]	12.5 ng mRNA, 3.9 nM sgRNA Avg % Edit [3]	# Sites in PHH [4]
B1	19.77%	34.30%	14.62%	24.37%	49.20%	0
B2	2.22%	34.65%	32.45%	15.87%	0.70%	5
B3	13.25%	40.93%	27.70%	19.10%	26.13%	2
B4	1.97%	30.82%	28.87%	14.23%	1.43%	3
B5	23.85%	27.82%	4.05%	7.37%	0.73%	0
B6	29.48%	43.37%	13.98%	16.67%	0.10%	0
B7	5.38%	24.72%	19.38%	10.53%	15.23%	0
B8	3.60%	45.93%	42.42%	31.60%	6.37%	7
B9	0.97%	11.55%	10.65%	7.33%	7.63%	1

— patent US11795460B2, “Compositions and methods for TTR gene editing and treating ATTR amyloidosis” (Intellia Therapeutics, Inc., priority 2017, dated 2023)
